Positions count from the first letter of the chain named. Numbers in names are those of the source.
Legend:
[1] = target: T1, mouse CD98 (mCD98) ECD (mouse, UniProt P10852 100-526); experiment: SPR (Biacore T200), antibody captured, mouse CD98 ECD as analyte, 1:1 Langmuir model
T1 construct: extracellular domain; By the methods the CD98 ECDs were His6-Avi-tagged; also called murine CD98
T1 sequence (looked up): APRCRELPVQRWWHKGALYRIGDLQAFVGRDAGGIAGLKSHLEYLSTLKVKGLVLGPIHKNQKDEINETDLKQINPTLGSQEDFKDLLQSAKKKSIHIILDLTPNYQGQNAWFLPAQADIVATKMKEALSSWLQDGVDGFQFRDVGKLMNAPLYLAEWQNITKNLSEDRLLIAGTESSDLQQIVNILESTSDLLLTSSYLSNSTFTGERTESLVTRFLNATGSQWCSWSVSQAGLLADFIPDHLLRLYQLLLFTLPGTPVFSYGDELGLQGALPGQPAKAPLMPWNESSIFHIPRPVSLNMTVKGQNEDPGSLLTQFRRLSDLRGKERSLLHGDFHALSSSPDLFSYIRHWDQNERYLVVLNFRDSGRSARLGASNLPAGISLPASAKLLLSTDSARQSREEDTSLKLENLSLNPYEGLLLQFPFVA
Experimental: (§1) Kinetic analysis of the bindings of anti-CD98 antibodies to the ECD of CD98, and the ECD of FcγRs were performed on a Biacore T200 instrument (Biacore, GE Healthcare). Anti-hFc Ab or protein A/G (Thermo Fisher Scientific) was covalently attached to the surface of a CM5 sensor chip using an amine coupling kit (GE Healthcare). Antibodies at optimal concentrations were captured on the chip and the analytes (CD98 or FcγRs) were then injected at 2-fold serial diluted concentrations. Binding kinetics were evaluated using a 1:1 Langmuir binding model. The ka, kd, and KD values were calculated using Biacore T200 evaluation software.

[2] = target: T2, human CD98 (hCD98) on cells (human, UniProt P08195 2-529); experiment: immunofluorescence on kidney sections of CD98 humanized mice (hCD98 ECD knock-in), FITC anti-human IgG secondary
T2 construct: also called CHO-hCD98; hCD98-expressing CHO cells
T2 sequence: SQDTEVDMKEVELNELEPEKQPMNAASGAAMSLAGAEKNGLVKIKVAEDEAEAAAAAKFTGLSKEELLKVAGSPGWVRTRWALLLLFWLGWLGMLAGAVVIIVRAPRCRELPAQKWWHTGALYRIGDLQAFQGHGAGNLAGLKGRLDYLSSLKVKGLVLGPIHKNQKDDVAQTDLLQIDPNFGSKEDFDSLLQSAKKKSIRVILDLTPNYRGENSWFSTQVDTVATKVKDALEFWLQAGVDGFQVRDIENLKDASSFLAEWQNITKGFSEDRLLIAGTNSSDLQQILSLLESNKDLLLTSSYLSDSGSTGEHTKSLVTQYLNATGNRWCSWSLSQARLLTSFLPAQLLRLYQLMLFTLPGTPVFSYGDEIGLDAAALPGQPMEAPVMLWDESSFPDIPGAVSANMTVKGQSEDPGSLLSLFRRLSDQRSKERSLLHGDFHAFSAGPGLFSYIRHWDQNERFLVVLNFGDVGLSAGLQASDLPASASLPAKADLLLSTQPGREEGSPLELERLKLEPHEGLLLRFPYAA

[3] = target: T3, hCD98 ECD-His6-Avi (human, UniProt P08195 105-529, biotinylated by BirA ligase on the Avi tag (form used in ELISA)); experiment: SPR (Biacore T200), antibody captured, hCD98 ECD as analyte
T3 construct: also called hCD98 ECD-His6-Avi-Biotin; not shown: His6-Avi tag
T3 sequence: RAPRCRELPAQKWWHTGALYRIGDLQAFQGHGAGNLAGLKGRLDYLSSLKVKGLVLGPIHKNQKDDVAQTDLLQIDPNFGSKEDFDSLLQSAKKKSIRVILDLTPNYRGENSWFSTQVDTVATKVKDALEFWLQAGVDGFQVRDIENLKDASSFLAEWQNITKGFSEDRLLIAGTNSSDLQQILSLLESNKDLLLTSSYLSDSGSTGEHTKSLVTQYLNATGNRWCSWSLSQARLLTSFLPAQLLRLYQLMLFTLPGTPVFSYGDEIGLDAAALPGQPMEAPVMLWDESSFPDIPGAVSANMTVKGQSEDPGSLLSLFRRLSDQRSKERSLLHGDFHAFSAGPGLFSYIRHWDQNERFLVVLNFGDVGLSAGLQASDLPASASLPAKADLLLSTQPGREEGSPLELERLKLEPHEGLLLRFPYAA

[4] = target: T3, hCD98 ECD-His6-Avi; experiment: SPR (Biacore T200), antibody captured, hCD98 ECD as analyte, 1:1 Langmuir model
Experimental: as §1

[5] = target: T3, hCD98 ECD-His6-Avi; experiment: ELISA at pH 7.4 and pH 6.5 on hCD98 ECD-His6-Avi-Biotin
[6] = target: T3, hCD98 ECD-His6-Avi; experiment: ELISA at pH 6.5 on hCD98 ECD-His6-Avi-Biotin
[7] = target: T3, hCD98 ECD-His6-Avi; experiment: ELISA at pH 7.4 on hCD98 ECD-His6-Avi-Biotin
[8] = target: T3, hCD98 ECD-His6-Avi; experiment: ELISA at pH 7.4 and pH 6.5 on hCD98 ECD
[9] = target: T3, hCD98 ECD-His6-Avi; experiment: ELISA, EC50 ratio pH 7.4/6.5 against that of S1-F4 Y97E
Experimental: (§2) For the ELISA-based analysis of antibody binding with antigen, biotinylated protein antigens were captured with streptavidin (Sigma-Aldrich) coated 96-well plates (Nunc, MaxiSorp™). Then, serially diluted antibodies were added, and detected by adding an HRP-labeled goat polyclonal anti-Human IgG Fc (Thermo Fisher Scientific).

[10] = target: T3, hCD98 ECD-His6-Avi; experiment: ELISA at pH 6.5, ratio of EC50 values against S1-F4 Y97E
[11] = target: T3, hCD98 ECD-His6-Avi; experiment: ELISA at pH 6.5, biotinylated hCD98 ECD captured on streptavidin
Experimental: as §2

[12] = target: T3, hCD98 ECD-His6-Avi; experiment: ELISA at pH 7.4, biotinylated hCD98 ECD captured on streptavidin, HRP anti-human IgG Fc
Experimental: as §2

[13] = target: T3, hCD98 ECD-His6-Avi; experiment: ELISA at pH 6.5, biotinylated hCD98 ECD captured on streptavidin; pH 6.5
Experimental: as §2

[14] = target: T3, hCD98 ECD-His6-Avi; experiment: ELISA at pH 7.4, biotinylated hCD98 ECD captured on streptavidin; pH 7.4
Experimental: as §2

[15] = target: T4, HEK293T-mCD98 (Mus musculus, UniProt P10852); experiment: FACS on leukocytes of C57BL/6 mice, FITC anti-human IgG secondary
T4 construct: full length, on cells or tissue; Cell-surface counterpart of m7 (the soluble mCD98 ECD), as m5 is of m4; also called mouse CD98 (mCD98) on cells; CD98 of C57BL/6 kidney and leukocytes
T4 sequence (CD98 heavy chain, looked up): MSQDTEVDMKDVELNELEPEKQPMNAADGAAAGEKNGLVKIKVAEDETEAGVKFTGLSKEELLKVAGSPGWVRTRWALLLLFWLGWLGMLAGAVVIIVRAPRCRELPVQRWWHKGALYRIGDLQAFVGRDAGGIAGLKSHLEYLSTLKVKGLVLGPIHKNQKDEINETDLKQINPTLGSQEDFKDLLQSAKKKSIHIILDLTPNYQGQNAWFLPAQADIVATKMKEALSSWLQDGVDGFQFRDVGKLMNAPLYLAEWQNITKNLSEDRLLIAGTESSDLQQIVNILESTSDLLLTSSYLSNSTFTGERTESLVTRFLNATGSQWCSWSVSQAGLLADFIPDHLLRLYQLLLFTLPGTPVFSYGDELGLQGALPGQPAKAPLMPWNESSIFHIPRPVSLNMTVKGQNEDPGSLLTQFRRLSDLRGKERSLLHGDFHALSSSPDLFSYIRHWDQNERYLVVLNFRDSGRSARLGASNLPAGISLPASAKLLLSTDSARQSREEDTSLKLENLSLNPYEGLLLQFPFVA

[16] = target: T1, mouse CD98 (mCD98) ECD; experiment: SPR (Biacore T200), antibody captured, CD98 ECD as analyte; table cells 'n.m.'
Experimental: as §1

[17] = target: T3, hCD98 ECD-His6-Avi; experiment: SPR (Biacore T200), antibody captured, CD98 ECD as analyte, 1:1 Langmuir model
Experimental: as §1

B1: BC8 (antibody, V domains shown)
VH: EVQLVESGGGVVQPGRSLRLSCAASGFTVSNNYMSWVRQAPGKGLEWVSVIYSGGKTYYADSAKGRFTISRDNSKNTVFLQMNSLRVEDTAVYYCARVSGLGWFDPWGQGTLVTVSS
VL: not shown
notes: human IgG1 format by the methods (detected with anti-human IgG); also called anti-mouse CD98 antibody BC8; mCD98-specific Ab
Kd [1]: 86.1 nM | koff [1]: 0.00344 s⁻¹ | kon [1]: 40000 M⁻¹ s⁻¹ | binding result [2]: no binding (tested: 15 µg/ml)

B2: HN2-G9 (antibody, V domains shown)
VH: QVQLVQSGAEVKKPGSSVKVSCKASGYTFTSYYMHWVRQAPGQGLEWMGIINPSGGSTSYAQKFQGRVTMTRDTSTSTVYMELSSLRSEDTAVYFCARGYCSGGRCYSDFQHWGQGTLVTVSS
VL: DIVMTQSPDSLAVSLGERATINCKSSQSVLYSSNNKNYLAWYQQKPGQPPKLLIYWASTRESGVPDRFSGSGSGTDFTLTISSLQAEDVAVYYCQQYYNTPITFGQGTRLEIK
Kd [3]: 1290 nM | koff [4]: 0.102 s⁻¹ | kon [4]: 787000 M⁻¹ s⁻¹

B3: IGN523 (antibody, V domains shown)
VH: QVQLVQSGAEVKKPGSSVKVSCKASGNAFTNYLIEWVRQAPGQGLEWMGVINPGSGITNYNEKFKGKATITADKSTSTAYMELSSLRSEDTAVYYCSGSANWFAYWGQGTLVTVSS
VL: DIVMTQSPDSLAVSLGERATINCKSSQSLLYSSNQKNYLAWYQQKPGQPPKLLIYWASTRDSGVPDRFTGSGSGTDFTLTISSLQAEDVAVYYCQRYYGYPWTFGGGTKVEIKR
Kd [4]: 0.722 nM | koff [4]: 0.000145 s⁻¹ | kon [4]: 201000 M⁻¹ s⁻¹

B4: Ab8332 (antibody, V domains shown)
VH: QVQLVQSGAEVKKPGASVKVSCKASGYTFTSYQMHWVRQAPGQGLEWMGIINPSGGSTSYAQKFQGRVTMTRDTSTSTVYMELSSLRSEDTAVYYCARGYEDSNTHQHPIFFDIWGQGTMVTVSS
VL: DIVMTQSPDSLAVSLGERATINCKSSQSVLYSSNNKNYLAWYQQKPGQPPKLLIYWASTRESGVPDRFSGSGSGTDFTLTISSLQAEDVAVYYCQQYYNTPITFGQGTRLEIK
notes: human IgG1 format by the methods
EC50 ratio (pH 7.4/6.5) [5]: 50.7 | EC50 (read off the curve) [6]: ~0.1 nM | EC50 (read off the curve) [7]: ~5 nM

B5: H15L1 (antibody, human IgG1, V domains shown)
VH: B4 VH with P53D, S54K, G55H
VL: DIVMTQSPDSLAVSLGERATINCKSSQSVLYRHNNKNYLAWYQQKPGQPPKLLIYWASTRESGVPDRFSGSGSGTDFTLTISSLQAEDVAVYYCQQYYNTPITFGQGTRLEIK
notes: as for B4
EC50 ratio (pH 7.4/6.5) [5]: 11.8

B6: H15L35 (antibody, human IgG1, V domains shown)
VH: B4 VH with P53D, S54K, G55H
VL: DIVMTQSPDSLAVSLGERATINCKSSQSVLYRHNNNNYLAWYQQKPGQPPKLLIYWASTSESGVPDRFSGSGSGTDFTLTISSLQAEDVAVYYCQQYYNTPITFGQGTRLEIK
notes: as for B4
EC50 ratio (pH 7.4/6.5) [5]: 16

B7: H15L54 (antibody, human IgG1, V domains shown)
VH: B4 VH with P53D, S54K, G55H
VL: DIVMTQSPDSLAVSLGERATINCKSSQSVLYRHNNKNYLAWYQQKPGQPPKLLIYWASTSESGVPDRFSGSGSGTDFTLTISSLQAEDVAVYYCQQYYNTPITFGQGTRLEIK
notes: human IgG1 format by the methods; also called pH-dependent anti-hCD98 antibody H15L54
EC50 ratio (pH 7.4/6.5) [8]: 38 | fold higher binding pH-dependence than S1-F4 Y97E [9]: ~14 fold | fold higher binding activity at pH 6.5 than S1-F4 Y97E [10]: ~7 fold | EC50 [11]: 0.247 nM | EC50 (read off the curve) [12]: ~5 nM

B8: S1-F4 (antibody, V domains shown)
VH: B4 VH with Q33Y, E101Y, S103I, N104L, H106G, Q107S, H108R
VL: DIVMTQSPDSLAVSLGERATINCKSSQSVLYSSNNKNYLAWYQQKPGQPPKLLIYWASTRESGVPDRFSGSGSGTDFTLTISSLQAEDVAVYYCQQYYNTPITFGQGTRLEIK
notes: Obtained by VH chain shuffling of HN2-G9; also called anti-hCD98 antibody S1-F4
EC50 [13]: 0.059 nM | EC50 [14]: 0.046 nM | binding result [15]: no binding (tested: 10 µg/ml) | binding result [16]: no binding | Kd [17]: 58.2 nM | koff [17]: 0.0576 s⁻¹ | kon [17]: 990000 M⁻¹ s⁻¹

B9: S1-F4 Y97E (antibody, V domains shown)
VH: B4 VH with Q33Y, S103I, N104L, H106G, Q107S, H108R
VL: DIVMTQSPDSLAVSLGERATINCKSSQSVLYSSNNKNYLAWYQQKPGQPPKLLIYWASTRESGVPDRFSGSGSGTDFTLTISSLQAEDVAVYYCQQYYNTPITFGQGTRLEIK
notes: S1-F4 with Y97E in HCDR3; also called S1-F4 VH Y97E
EC50 ratio (pH 7.4/6.5) [8]: 2.7 | EC50 [13]: 1.69 nM | EC50 [14]: 4.53 nM
